The results in this text go back to publication PMC3001161 (Molecular cell, 2010).

The chains are these.
B1: full-length Dcn1 (natural protein, budding yeast, UniProt Q12395 1-269, looked up)
chain: MSNNKIKRKDASPEQEAIESFTSLTKCDPKVSRKYLQRNHWNINYALNDYYDKEIGTFTDEVSTVAHPPVYPKELTQVFEHYINNNLFDIDSLVKFIEELGYNLEDLATLCLAHLLGYKKLEEPLKREDFLSTWFMQGCSTISDMQECIKTLDVKLHEDLQYFTQIYNYAFNLILDPNRKDIDTDEGIQYWKLFFQPEYPVRMEPDLLEAWFRFLRDEGKTTISKDTWRMLLLFFKRYPTIQKIISDYDETAAWPFIIDEFYECLQDQQ
B2: Dcn1 potentiating neddylation (PONY) domain, Dcn1^P (domain or fragment)
chain: VYPKELTQVFEHYINNNLFDIDSLVKFIEELGYNLEDLATLCLAHLLGYKKLEEPLKREDFLSTWFMQGCSTISDMQECIKTLDVKLHEDLQYFTQIYNYAFNLILDPNRKDIDTDEGIQYWKLFFQPEYPVRMEPDLLEAWFRFLRDEGKTTISKDTWRMLLLFFKRYPTIQKIISDYDETAAWPFIIDEFYECLQDQQ
B3: isolated Cdc53 WHB subdomain (Cdc53^WHB) (domain or fragment, budding yeast, UniProt Q12018 730-815, looked up)
chain: NKRLTEDERIEKELNTERQIFLEACIVRIMKAKRNLPHTTLVNECIAQSHQRFNAKVSMVKRAIDSLIQKGYLQRGDDGESYAYLA

Test in all cases: ITC
In test [1] the target is Cdc53^C+-Hrt1 complex (budding yeast) (UniProt Q12018).
The target in test [2] is Cdc53^C+-Hrt1^ΔR complex (budding yeast).
Test [3] addresses B3.
Test [4] has as its target T1, Dcn1 potentiating neddylation (PONY) domain, Dcn1^P (budding yeast, UniProt Q12395 70-269).
T1 sequence (looked up): B2 chain

In the case of B1, the stoichiometry N in test [1], in test [2] and in test [3] was 1 in each case.
B2: the stoichiometry N in test [2] worked out at 1.
B3: the dissociation constant Kd in test [4] was 227 nM.
